Series [1] concerns the molecule itself. Kind of series: SEC-MALS; Superdex 200 10/30 GL, SEC-UV/LS/RI; Ca2+-bound holo state, 20 mM CaCl2 in the buffer; 20 mM imidazole in the buffer for HPC2 Cterm; three injected amounts for HPC2 Cterm and SUPC2 Ccore. On the technique in general: In gel filtration, larger molecules generally elute earlier.
Series [2] concerns the molecule itself. The series can be described thus: SEC-MALS; Superdex 200 10/30 GL, SEC-UV/LS/RI; Ca2+-free apo state, no added CaCl2, 1 mM EDTA; 20 mM imidazole in the buffer for HPC2 Cterm; three injected amounts.

Consider one protein from paper PMC4400361, “Oligomerization of the Polycystin-2 C-terminal Tail and Effects on Its Ca^2+-binding Properties*” (The Journal of Biological Chemistry, 2015).

One may read the stoichiometry N as a count of units in the complex or per binding partner.

B1: human polycystin-2 C-terminal construct, which includes the full-length cytoplasmic tail (HPC2 Cterm) (domain or fragment, UniProt Q13563 704-968, looked up)
chain: IRKGYHKALVKLKLKKNTVDDISESLRQGGGKLNFDELRQDLKGKGHTDAEIEAIFTKYDQDGDQELTEHEHQQMRDDLEKEREDLDLDHSSLPRPMSSRSFPRSLDDSEEDDDEDSGHSSRRRGSISSGVSYEEFQVLVRRVDRMEHSIGSIVSKIDAVIVKLEIMERAKLKRREVLGRLLDGVAEDERLGRDSEIHREQMERLVREELERWESDDAASQISHGLGTPVGLNGQPRPRSSRPSSSQSTEGMEGAGGNGSSNVHV
notes: polycystin-2 (PC2), human, residues I704-V968, numbered on full-length human PC2; Printed monomer mass 32.2 kDa; also called C-terminal cytoplasmic tail of human PC2; HPC Cterm
For the protein B1, the “stoichiometry N” value in series [1] and in series [2] was 3 throughout.
